Drawing on article PMC10864208 (2024), this text covers Kd for two molecules.

Where “and” joins values, the source holds several entries; their conditions need not be identical. Equal values may be shown once. Non-standard residues stand in square brackets, D forms with d. *: point of attachment. FITC = O=C1OC2(c3ccc(O)cc3Oc3cc(O)ccc32)c2ccc(NC(=S)*)cc21; pS = N[C@@H](COP(=O)(O)O)C(=O)O

What all share (test): FP
Assay [1] has as its target T1, MDM2 179-193 (Homo sapiens, UniProt Q00987).
T1 chain: {FITC}-RQRKRHK[pS]DSISLSF-NH2

The target of assay [2] is T2, MDM2 179-193 (Homo sapiens, UniProt Q00987).
T2 chain: {FITC}-RQRKRHK[pS]DSISLSF-NH2

A further assay has as its target MDM2 159-193 (Homo sapiens, UniProt Q00987, pS186, N-terminal FITC).
A further assay deals with T3, MDM2 159-173 (Homo sapiens, UniProt Q00987).
T3 chain: {FITC}-SSRRRAI[pS]ETEENSD-NH2

Chain of MDM2 159-193 (Q00987 159-193): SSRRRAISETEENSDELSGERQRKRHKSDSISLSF

B1: 14-3-3ζ (protein)
chain: MDKNELVQKAKLAEQAERYDDMAACMKSVTEQGAELSNEERNLLSVAYKNVVGARRSSWRVVSSIEQKTEGAEKKQQMAREYREKIETELRDICNDVLSLLEKFLIPNASQAESKVFYLKMKGDYYRYLAEVAAGDDKKGIVDQSQQAYQEAFEISKKEMQPTHPIRLGLALNFSVFYYEILNSPEKACSLAKTAFDEAIAELDTLSEESYKDSTLIMQLLRDNLTLWTSDTQGDEAEAGEGGEN
B1: the Kd with MDM2 179-193 [1] was 11.4 µM.

B2: 14-3-3σ (protein)
chain: MERASLIQKAKLAEQAERYEDMAAFMKGAVEKGEELSCEERNLLSVAYKNVVGGQRAAWRVLSSIEQKSNEEGSEEKGPEVREYREKVETELQGVCDTVLGLLDSHLIKEAGDAESRVFYLKMKGDYYRYLAEVATGDDKKRIIDSARSAYQEAMDISKKEMPPTNPIRLGLALNFSVFHYEIANSPEEAISLAKTTFDEAMADLHTLSEDSYKDSTLIMQLLRDNLTLWTADNAGEEGGEAPQEPQS
For B2, the Kd was 10.8 µM in the assay with MDM2 179-193 [2]; more than 124 µM with MDM2 159-193; more than 115 µM with MDM2 159-173; 24.6 µM and ~26.2 µM in the assay with MDM2 179-193 [1].
